Experimental data as given in patent US20080119430A1.

Key:
Experiment in all cases: cell-based or functional assay
[1] = target: Rac (active Rac-GTP, endogenous in HUVECs) (human) (UniProt P31749)
[2] = target: Cdc42 (active Cdc42-GTP, endogenous in HUVECs) (human) (UniProt P60953)
[3] = target: Rac (active Rac-GTP, endogenous in NIH3T3 cells)

Rac (active Rac-GTP, endogenous in HUVECs) (human), sequence (P31749 whole entry): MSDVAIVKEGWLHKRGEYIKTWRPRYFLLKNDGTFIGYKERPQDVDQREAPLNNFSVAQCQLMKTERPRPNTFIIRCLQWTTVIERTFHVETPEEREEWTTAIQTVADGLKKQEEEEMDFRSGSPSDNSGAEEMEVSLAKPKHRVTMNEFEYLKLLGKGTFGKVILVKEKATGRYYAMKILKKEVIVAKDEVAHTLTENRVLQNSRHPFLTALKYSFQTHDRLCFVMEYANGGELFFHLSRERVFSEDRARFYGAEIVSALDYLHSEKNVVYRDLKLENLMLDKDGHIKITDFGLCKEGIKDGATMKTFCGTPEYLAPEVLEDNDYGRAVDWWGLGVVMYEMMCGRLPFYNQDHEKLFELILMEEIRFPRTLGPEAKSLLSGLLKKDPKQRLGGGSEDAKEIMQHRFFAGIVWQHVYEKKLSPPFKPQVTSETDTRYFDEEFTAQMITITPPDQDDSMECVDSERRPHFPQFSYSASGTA
Cdc42 (active Cdc42-GTP, endogenous in HUVECs) (human), sequence (P60953 1-188 limits assumed): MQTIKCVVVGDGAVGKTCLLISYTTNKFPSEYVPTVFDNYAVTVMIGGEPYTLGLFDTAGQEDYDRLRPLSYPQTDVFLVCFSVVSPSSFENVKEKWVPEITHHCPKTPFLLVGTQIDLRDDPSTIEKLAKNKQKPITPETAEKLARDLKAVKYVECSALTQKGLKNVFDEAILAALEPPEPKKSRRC

Substance	fold increase in active Rac in HUVECs after BNO69 knockdown with BNO69R, compared to empty vector [1] [fold]	fold increase in active Cdc42 in HUVECs after BNO69 knockdown with BNO69R, compared to empty vector [2] [fold]	increase in Rac activity (Rac-GTP pull-down) in NIH3T3 cells after inhibition of BNO69 expression with antisense BNO69R [3] [fold]
BNO69 (endogenous protein in HUVECs, knocked down by adenoviral antisense BNO69R) (from UniProt Q8N264 131-748) (enzyme)	1.1	1.1	
BNO69 (endogenous protein in NIH3T3 cells, knocked down by retroviral antisense BNO69R) (enzyme)			3
